{
  "source": "paper PMC12455926",
  "origin": "cited, not measured here",
  "target": "AXL (Homo sapiens) (UniProt P30530)",
  "note": "pKd: −log10 of the molar value.",
  "data": [
    {"substance": "Spike protein NTD (from UniProt P0DTC2)", "values": [
      {"measurement": "pKd", "value": 6.05}
    ]}
  ]
}
